Results from US9944717.

Target: T1, glycosylated recombinant human complement C2 with a N-terminal his-tag
T1 chain: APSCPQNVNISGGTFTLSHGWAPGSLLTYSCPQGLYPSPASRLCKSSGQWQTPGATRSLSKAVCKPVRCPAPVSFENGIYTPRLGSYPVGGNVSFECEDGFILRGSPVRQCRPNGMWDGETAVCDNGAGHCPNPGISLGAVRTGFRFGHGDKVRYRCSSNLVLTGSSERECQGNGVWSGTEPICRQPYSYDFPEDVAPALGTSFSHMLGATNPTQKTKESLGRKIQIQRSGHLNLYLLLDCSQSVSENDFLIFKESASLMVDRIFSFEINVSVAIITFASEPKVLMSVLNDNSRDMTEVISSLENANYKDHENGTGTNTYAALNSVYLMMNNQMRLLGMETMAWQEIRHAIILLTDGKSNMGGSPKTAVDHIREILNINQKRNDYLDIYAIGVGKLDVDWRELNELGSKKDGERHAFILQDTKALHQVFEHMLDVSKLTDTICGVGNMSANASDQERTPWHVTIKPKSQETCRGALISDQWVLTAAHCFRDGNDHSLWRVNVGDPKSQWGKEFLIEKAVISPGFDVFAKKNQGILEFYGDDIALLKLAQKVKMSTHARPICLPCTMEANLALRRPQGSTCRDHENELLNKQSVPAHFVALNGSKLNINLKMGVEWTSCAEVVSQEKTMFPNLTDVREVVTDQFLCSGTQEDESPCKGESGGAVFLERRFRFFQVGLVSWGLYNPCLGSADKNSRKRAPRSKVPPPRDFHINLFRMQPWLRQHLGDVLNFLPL

B1: plasma-derived activated human C1s (Calbiochem) (protein)
chain: EPTMYGEILSPNYPQAYPSEVEKSWDIEVPEGYGIHLYFTHLDIELSENCAYDSVQIISGDTEEGRLCGQRSSNNPHSPIVEEFQVPYNKLQVIFKSDFSNEERFTGFAAYYVATDINECTDFVDVPCSHFCNNFIGGYFCSCPPEYFLHDDMKNCGVNCSGDVFTALIGEIASPNYPKPYPENSRCEYQIRLEKGFQVVVTLRREDFDVEAADSAGNCLDSLVFVAGDRQFGPYCGHGFPGPLNIETKSNALDIIFQTDLTGQKKGWKLRYHGDPMPCPKEDTPNSVWEPAKAKYVFRDVVQITCLDGFEVVEGRVGATSFYSTCQSNGKWSNSKLKCQPVDCGIPESIENGKVEDPESTLFGSVIRYTCEEPYYYMENGGGGEYHCAGNGSWVNEVLGPELPKCVPVCGVPREPFEEKQRIIGGSDADIKNFPWQVFFDNPWAGGALINEYWVLTAAHVVEGNREPTMYVGSTSVQTSRLAKSKMLTPEHVFIHPGWKLLEVPEGRTNFDNDIALVRLKDPVKMGPTVSPICLPGTSSDYNLMDGDLGLISGWGRTEKRDRAVRLKAARLPVAPLRKCKEVKVEKPTADAEAYVFTPNMICAGGEKGMDSCKGDSGGAFAVQDPNDKTKFYAAGLVSWGPQCGTYGLYTRVKNYVDWIMKTMQENSTPRED
cleavage of recombinant C2 by C1s (SDS-PAGE, C1s-to-C2 ratio of 1:25): C1s cleaved recombinant C2 into subcomponents C2a (≈70 kDa) and C2b (≈30 kDa)
